Ends that are not written are not given here.
Molecular target: biotinylated wildtype K-Ras·GppNHp (His-Avi-TEV-KRAS (wildtype))
Experiment: TR-FRET K-Ras(wildtype) + Raf1-RBD
Conditions: chains peptide; modification not given; biotin on the Avi tag (co-expressed BirA)

Binder: YFVNFRNFRTFRCG (also: cyclic, ring closure not given here) [KD2]
- IC50: > 100 µM
